Experimental data reported in patent US20200270346A1.

Key:
[1] = biological target: Human TIGIT-His (extracellular domain of hTIGIT with a histidine tag) (human) (UniProt Q495A1); experiment: SPR, Biacore T200, antibody captured on anti-mouse IgG, TIGIT-His in solution, 1:1 Langmuir fit
[2] = biological target: human TIGIT-Fc protein (human) (UniProt Q495A1); experiment: SPR, Biacore T200, antibody captured on anti-mouse IgG, TIGIT-Fc in solution, 1:1 Langmuir fit
[3] = biological target: human TIGIT expressed on cells (human) (UniProt Q495A1); experiment: cell-based or functional assay
human TIGIT expressed on cells (human), sequence (Q495A1 25-244): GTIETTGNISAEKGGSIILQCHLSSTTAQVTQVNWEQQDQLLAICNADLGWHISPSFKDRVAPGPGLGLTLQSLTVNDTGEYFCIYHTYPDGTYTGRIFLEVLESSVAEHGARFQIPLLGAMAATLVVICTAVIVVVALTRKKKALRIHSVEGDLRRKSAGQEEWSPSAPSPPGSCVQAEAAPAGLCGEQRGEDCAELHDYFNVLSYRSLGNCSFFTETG

Human TIGIT-His (extracellular domain of hTIGIT with a histidine tag) (human), sequence (Q495A1 25-141 limits assumed): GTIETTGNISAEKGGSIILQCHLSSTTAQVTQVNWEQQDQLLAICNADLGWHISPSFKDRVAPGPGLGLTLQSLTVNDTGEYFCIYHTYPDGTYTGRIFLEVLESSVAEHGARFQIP
human TIGIT-Fc protein (human), sequence (Q495A1 25-141): as the sequence (Q495A1 25-141 limits assumed) above

## MBSA43 (commercial mouse anti-human TIGIT antibody, eBioscience Cat #12-9500-42)
[1]
  Kd: 0.0363 nM
[2]
  Kd: 0.0165 nM
[3]
  EC50 of IL-2 rescue in hTIGIT-Jurkat / THP-1 co-culture: 0.24 µg/mL
